Source: patent publication US6921663

Legend:
Test in all cases: cell-based or functional assay
[1] = target: integrin on SK-HEP1 cells (human (cell line))
[2] = target: RGD peptide target integrin (αvβ3 or αvβ5) on LN444 cells (human (LN444 human glioma cells)) (UniProt P06756)
integrin on CHO cells = target: integrin on CHO cells

UniProt P06756, sequence (P06756 whole entry): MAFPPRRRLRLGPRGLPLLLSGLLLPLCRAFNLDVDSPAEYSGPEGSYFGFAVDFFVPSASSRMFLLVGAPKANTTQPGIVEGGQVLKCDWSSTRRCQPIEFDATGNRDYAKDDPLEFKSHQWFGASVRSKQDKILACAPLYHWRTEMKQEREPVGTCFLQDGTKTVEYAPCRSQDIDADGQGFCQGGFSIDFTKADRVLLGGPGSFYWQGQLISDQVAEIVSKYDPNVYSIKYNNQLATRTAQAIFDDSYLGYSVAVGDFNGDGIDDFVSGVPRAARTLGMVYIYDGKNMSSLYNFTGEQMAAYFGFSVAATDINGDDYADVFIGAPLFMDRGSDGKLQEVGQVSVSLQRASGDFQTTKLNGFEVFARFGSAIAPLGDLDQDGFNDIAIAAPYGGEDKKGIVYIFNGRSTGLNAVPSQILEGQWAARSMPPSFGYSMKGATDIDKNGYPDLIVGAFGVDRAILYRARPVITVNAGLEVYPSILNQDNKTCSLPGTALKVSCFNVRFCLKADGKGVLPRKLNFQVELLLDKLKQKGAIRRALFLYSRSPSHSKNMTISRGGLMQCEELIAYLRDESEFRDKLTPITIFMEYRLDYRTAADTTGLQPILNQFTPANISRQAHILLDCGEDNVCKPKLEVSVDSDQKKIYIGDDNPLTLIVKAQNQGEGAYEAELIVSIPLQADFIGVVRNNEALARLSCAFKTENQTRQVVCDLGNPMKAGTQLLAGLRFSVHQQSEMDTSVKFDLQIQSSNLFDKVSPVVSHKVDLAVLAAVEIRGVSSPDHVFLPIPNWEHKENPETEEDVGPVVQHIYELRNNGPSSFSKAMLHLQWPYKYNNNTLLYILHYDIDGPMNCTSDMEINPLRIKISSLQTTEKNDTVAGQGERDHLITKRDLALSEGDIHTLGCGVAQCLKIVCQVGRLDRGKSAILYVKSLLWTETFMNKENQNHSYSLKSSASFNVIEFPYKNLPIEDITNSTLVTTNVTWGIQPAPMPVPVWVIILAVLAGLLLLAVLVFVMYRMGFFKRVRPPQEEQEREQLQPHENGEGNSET

Row | Substance | Luc enzyme activity after transduction of SK-HEP1 cells, against AdHM4-L2 (wild fiber) [1] | Luc enzyme activity after transduction of LN444 cells (CAR not expressed), against AdHM4-L2 (wild fiber) [2] | LacZ enzyme activity after transduction of SK-HEP1 cells, against AdHM4-LacZ (wild fiber) [1] | LacZ enzyme activity after transduction of CHO cells (CAR not expressed), against AdHM4-LacZ (wild fiber) (integrin on CHO cells)
1 | AdHM15-RGD-L2 (adenovirus type 5 vector whose fiber carries the RGD-4C peptide in the HI loop; luciferase cassette) (from UniProt P11818 1-546; P11818 547-581) | 10 fold | 1000 fold | – | –
2 | AdHM15-RGD-LacZ (adenovirus type 5 vector whose fiber carries the RGD-4C peptide in the HI loop; LacZ cassette in the E1-deleted region) (from UniProt P11818 1-546; P11818 547-581) | – | – | 2 fold | 40 fold
